Laboratory results as given in paper PMC6774519.

Tests used:
[1] = test system: #B1-3 anti-m6A monoclonal antibody (guinea pig (Hartley)); assay: UV crosslinking, IP and RT truncation (footprinting); conditions: 41 clones sequenced; m6A at position 14; SPR: Biacor T100, HBS-EP+ buffer, 30 ul/min, biotin-RNA at 20 RU on SA chip, antibody 0-27 nM, 1:1 fit; ELISA: PBS, 3 h, room temperature; UV-crosslink IP: …
[2] = test system: #B1-3 anti-m6A monoclonal antibody (guinea pig (Hartley)); assay: pull-down (protein A IP); conditions: m6A at position 6; SPR: Biacor T100, HBS-EP+ buffer, 30 ul/min, biotin-RNA at 20 RU on SA chip, antibody 0-27 nM, 1:1 fit; ELISA: PBS, 3 h, room temperature; UV-crosslink IP: …
[3] = test system: #B1-3 anti-m6A monoclonal antibody (guinea pig (Hartley)); assay: SPR; conditions: m6A at position 6; SPR: Biacor T100, HBS-EP+ buffer, 30 ul/min, biotin-RNA at 20 RU on SA chip, antibody 0-27 nM, 1:1 fit; ELISA: PBS, 3 h, room temperature; UV-crosslink IP: …
[4] = test system: #B1-1 anti-m6A monoclonal antibody (guinea pig (Hartley)); assay: SPR; conditions: m6A at position 6; SPR: Biacor T100, HBS-EP+ buffer, 30 ul/min, biotin-RNA at 20 RU on SA chip, antibody 0-27 nM, 1:1 fit; ELISA: PBS, 3 h, room temperature; UV-crosslink IP: …

| Sequence | binding signal (% RT truncations at m6A) [1] | binding signal (% immunoprecipitated) [2] | Kd [3] [nM] | Kd [4] [nM] |
| --- | --- | --- | --- | --- |
| AUCAUCUUUCGGGACUGACCUGAAAUGAACCCUA [Snord-oligo (Snord2, 34 nt)] | 68 |  |  |  |
| NNNGGACNNN [m6A-oligo] |  | 35 | 6.5 | 2.5 |
